Measurements: US20220332804A1 (CSL INNOVATION, published 2022)

Columns and labels:
Assay in all cases: SPR; KD relative to WT C2;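 also: biacore SPR at 37 °C, anti-C2 mAbs captured on an anti-human IgG chip, alanine or serine C2 surface mutants tested, KD from 1:1 fit compared with wild-type C2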
human C2 D431A = biological target: T1, human C2 D431A (human, UniProt P06681 21-752)
T1 sequence: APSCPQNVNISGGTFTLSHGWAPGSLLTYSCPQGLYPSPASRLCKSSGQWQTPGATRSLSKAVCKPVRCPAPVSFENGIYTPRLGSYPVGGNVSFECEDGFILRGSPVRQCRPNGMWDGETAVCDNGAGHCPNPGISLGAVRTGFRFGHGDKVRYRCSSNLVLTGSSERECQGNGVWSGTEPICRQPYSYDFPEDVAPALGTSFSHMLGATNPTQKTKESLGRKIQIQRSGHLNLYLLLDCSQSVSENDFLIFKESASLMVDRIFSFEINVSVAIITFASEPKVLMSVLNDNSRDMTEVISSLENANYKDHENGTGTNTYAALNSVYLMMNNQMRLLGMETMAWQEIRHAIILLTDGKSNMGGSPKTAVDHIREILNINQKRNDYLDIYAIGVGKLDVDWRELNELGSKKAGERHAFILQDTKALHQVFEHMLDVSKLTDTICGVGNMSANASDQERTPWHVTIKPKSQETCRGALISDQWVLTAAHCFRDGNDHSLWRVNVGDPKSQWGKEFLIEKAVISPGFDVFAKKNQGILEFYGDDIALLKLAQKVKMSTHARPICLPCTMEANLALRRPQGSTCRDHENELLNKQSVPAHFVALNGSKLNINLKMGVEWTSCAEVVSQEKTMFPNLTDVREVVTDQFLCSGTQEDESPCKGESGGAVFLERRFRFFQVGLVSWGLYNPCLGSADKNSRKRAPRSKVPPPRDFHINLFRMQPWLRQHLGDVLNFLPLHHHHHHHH

human C2 W420A = biological target: T2, human C2 W420A (human, UniProt P06681 21-752)
T2 sequence: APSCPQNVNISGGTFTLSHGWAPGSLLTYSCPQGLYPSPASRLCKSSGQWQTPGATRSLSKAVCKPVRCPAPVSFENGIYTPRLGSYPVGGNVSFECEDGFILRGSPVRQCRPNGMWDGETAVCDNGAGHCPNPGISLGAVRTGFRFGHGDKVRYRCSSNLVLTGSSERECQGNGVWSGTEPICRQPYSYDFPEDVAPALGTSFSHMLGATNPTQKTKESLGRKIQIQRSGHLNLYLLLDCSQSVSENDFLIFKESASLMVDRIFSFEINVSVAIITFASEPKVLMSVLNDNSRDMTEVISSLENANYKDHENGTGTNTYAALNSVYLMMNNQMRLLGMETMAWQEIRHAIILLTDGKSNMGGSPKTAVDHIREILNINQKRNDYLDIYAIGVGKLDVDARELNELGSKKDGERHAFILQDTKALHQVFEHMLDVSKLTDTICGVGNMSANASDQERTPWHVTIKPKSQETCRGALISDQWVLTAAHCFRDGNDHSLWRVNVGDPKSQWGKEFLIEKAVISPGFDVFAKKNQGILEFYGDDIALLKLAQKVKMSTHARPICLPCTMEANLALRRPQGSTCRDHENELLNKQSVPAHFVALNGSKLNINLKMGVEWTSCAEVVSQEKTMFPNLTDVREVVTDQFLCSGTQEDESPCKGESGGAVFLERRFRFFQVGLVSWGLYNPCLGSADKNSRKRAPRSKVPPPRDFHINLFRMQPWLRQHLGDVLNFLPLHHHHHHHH

human C2 L453A = biological target: T3, human C2 L453A (human, UniProt P06681 21-752)
T3 sequence: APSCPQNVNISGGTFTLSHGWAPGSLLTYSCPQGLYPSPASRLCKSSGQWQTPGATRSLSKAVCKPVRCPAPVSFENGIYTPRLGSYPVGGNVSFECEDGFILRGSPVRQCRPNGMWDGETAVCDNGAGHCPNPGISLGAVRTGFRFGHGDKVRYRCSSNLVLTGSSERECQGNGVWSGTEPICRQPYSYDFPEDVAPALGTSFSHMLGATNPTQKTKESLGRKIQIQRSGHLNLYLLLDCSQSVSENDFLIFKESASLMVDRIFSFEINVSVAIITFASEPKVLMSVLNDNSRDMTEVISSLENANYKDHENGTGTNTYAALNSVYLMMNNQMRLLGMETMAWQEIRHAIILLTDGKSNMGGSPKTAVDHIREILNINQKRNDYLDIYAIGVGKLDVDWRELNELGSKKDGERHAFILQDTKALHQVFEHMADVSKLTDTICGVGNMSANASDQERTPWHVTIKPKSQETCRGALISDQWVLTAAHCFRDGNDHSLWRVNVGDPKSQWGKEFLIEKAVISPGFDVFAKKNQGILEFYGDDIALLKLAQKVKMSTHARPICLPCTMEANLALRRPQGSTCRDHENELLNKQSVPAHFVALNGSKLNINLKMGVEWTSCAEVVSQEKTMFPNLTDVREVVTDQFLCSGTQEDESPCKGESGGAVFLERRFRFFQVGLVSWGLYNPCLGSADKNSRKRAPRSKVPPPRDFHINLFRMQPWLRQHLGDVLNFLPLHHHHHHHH

human C2 D419A = biological target: T4, human C2 D419A (human, UniProt P06681 21-752)
T4 sequence: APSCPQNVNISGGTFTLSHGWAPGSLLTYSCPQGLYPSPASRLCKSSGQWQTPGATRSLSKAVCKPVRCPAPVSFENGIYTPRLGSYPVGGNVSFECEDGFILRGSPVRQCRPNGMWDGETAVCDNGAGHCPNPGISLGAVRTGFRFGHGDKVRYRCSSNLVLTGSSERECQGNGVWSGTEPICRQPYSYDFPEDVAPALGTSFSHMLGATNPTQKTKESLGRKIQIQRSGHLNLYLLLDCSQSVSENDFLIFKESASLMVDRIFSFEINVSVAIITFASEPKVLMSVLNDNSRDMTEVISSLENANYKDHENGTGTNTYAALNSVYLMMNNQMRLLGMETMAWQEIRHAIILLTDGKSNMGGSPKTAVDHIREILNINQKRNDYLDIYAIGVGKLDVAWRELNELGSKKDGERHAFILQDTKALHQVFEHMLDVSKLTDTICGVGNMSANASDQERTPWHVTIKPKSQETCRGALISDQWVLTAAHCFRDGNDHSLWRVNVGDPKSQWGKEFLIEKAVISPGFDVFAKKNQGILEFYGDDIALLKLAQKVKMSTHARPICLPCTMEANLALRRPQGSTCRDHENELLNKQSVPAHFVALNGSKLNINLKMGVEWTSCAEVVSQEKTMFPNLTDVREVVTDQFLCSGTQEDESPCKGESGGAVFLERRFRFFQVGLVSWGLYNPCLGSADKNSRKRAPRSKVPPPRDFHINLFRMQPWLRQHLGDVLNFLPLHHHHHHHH

B1: RF16-214 (antibody, V domains shown)
VH: EVQLLESGGGLVQPGGSLRLSCAASGFTFSWYQMMWVRQAPGKGLEWVSRIYPSGGGTAYADSVKGRFTISRDNSKNTLYLQMNSLRAEDTAVYYCARDAGYGDNWGQGTLVTVSS
VL: QSALTQPPSVSVSPGQTASITCSGDKLGEKYASWYQQKAGQSPVMVIYQDRKRPSGIPERFSGSNSGNTATLTISGTQAMDEADYYCQAWDTRAVVFGGGTKLTVLG
Human C2 D431A
  Fold diff: 2 fold
Human C2 W420A
  Fold diff: 1 fold
Human C2 L453A
  Fold diff: 45 fold
Human C2 D419A
  Fold diff: 2 fold
